Reference: patent US6710030B1, “Contortrostain (CN) and methods for its use in preventing metastasis and other conditions” (University of Southern California, priority 1993, dated 2004)
Entries after “also recorded” stand apart in the source; their conditions may differ. Where two headings read alike, the source gives them in different places.

Key:
OVCAR-5 cells = test: Phosphotyrosine immunoblot, OVCAR-5 cells; format: cell-based, human; settings: data not shown
T24 cells = test: Adhesion of T24 cells to immobilized vitronectin; format: cell-based, human
Protocol: Individual wells of 96-well plates were coated at 4° C. overnight with 100 μl of vitronectin (1 μg/well). Excess proteins were washed off with three washes of phosphate buffered saline (PBS), followed by blocking with 1% bovine serum albumin (BSA) in PBS. Aliquots (100 μl) of cells (5×10^5 cells/ml) were incubated at room temperature for 20 minutes with antibodies or contortrostatin before being applied to the coated wells. Treated cells were allowed to adhere to the wells for 30 minutes at 37° C. Unbound cells were washed off with serum-free medium. Cell adhesion was quantified either by CellTiter 96™ Aqueous Proliferation Assay kit (Promega, Madison, Wis.). Each inhibitor concentration was tested in triplicate, and assays were performed at least three times yielding identical results.

rabbit PRP = test: ADP-induced platelet aggregation in rabbit PRP; format: cell-based; settings: 20 μM ADP
Protocol: Column fractions obtained during purification were assayed for activity using fresh human platelet rich plasma (PRP) prepared from blood obtained from human volunteers who had had no medication for at least two weeks. Blood (36 ml) was drawn into 4 ml of 0.1 M citrate and centrifuged at 150×g for 20 minutes. The supernatant, PRP, was removed and the remaining blood was centrifuged at 10,000 RPM to obtain platelet poor plasma (PPP). Platelet counts were adjusted to 250,000 platelets/μl using a Coulter counter. A Helena four channel aggregometer was used to monitor platelet aggregation. Inhibition of ADP-induced platelet aggregation was monitored at 37° C. by adding venom fractions one minute prior to the addition of ADP (10-20 μM final concentration). […] Rabbit and canine PRP was prepared by the same procedure and used in the studies described below.
CN inhibited ADP-induced platelet aggregation in human, canine, and rabbit PRPs (FIG. 6). Empty circles represent human platelet rich plasma, solid circles represent canine PRP, and empty triangles represent rabbit PRP. Varying concentration of CN were preincubated for one minute with PRP prior to the addition of ADP.

canine platelets = settings: cited from earlier work
purified (GP)IIb/IIIa = purified (GP)IIb/IIIa (Homo sapiens, UniProt P05106+P08514); test: Fibrinogen-(GP)IIb/IIIa ELISA; format: binding
Excerpt: Several lines of evidence indicate that CN inhibits platelet aggregation by binding specifically to the (GP)IIb/IIIa integrin receptor. […] Additionally, the partial amino acid sequence of CN indicates considerable similarity with other disintegrins known to bind to (GP)IIb/IIIa. Finally, CN blocks 7E3 binding to (GP)IIb/IIIa. 7E3 is a murine monoclonal antibody that specifically binds to (GP)IIb/IIIa, thereby inhibiting human and canine platelet aggregation [Coller, B. S. et al., J. Clin. Invest. 72:325 (1983)].

[1] = test system: human melanoma M24 met cells; test: M24 met cell adhesion to extracellular matrix proteins; format: cell-based
Excerpt: (§1) The compositions of the present invention also have utility in inhibiting metastasis in melanoma, carcinoma and sarcoma patients. […] Thus, methods and compositions for preventing metastases in melanoma, carcinoma and sarcoma patients are also contemplated as within the scope of the present invention.

[2] = test system: human melanoma M24 met cells; test: CN binding to human melanoma M24 met cells
Excerpt: as §1

[3] = test system: KSY-1 Kaposi's sarcoma cells; test: Phosphotyrosine immunoblot, KSY-1 Kaposi's sarcoma cells; format: cell-based; settings: data not shown
T24-β3 neg. cells = test: Adhesion of T24-β3 neg. cells to immobilized vitronectin; format: cell-based, human; settings: FIG. 19 C, D
Protocol: Experiment 1. Cell adhesion assay: Human bladder carcinoma T24 cells were purchased from ATCC, and grown in RPMI1640 medium containing 5% fetal bovine serum. T24-β3 neg. cells were isolated by 6 rounds of negative FACS selection with anti-αvβ3 monoclonal antibody (mAb) LM609. FACS analysis was then performed as follows. The cells were resuspended in 1% BSA/PBS at a density of 1×10^7/ml. Aliquots of 100 μl were incubated with anti-αvβ3 mAb 7E3 or anti-αvβ5 mAb P1F6 (final concentration 5 μg/ml) at room temperature for 30 minutes. The cells were washed twice and resuspended in 1% BSA/PBS. Goat anti-mouse IgG conjugated with FITC was added to the suspension at a final titer of 1:200. After 30 minutes incubation at room temperature in darkness, unbound FITC-conjugated IgG was washed off, and the fluorescent intensity of the cells was analyzed using flow cytometry (FACScan, Becton Dickinson, Bedford, Mass.). Tests were performed in duplicate and the experiment was repeated three times. The results clearly indicate that T24 cells express both integrins αvβ3 (major) and αvβ5 (minor), but T24-β3 neg. cells only express αvβ5 (FIG. 18)
Individual wells of 96-well plates were coated at 4° C. overnight with 100 μl of vitronectin (1 μg/well). […] Cell adhesion was quantified either by CellTiter 96™ Aqueous Proliferation Assay kit (Promega, Madison, Wis.). […]

purified αvβ5 = purified αvβ5 (Homo sapiens, UniProt P06756+P18084); test: Solid-phase binding of contortrostatin to purified αvβ5 (modified ELISA); settings: 100 ng αvβ5 per well
Protocol: Experiment 3: Detection of the binding of contortrostatin to αvβ5: Direct evidence that contortrostatin binds to αvβ5 was collected by solid-phase binding assay using purified αvβ5 and a modified ELISA. Soluble αvβ5 (100 ng) was immobilized on wells of a 96-well plate at 4° C. overnight. Excess protein was washed off, and unbound sites were blocked with 1% BSA/PBS. Contortrostatin at various concentrations was allowed to bind to the coated plate at room temperature for one hour. After three washes with PBS, the bound contortrostatin molecules were detected with 1:1,000 antiserum against contortrostatin. Goat anti-rabbit antibody conjugated with alkaline phosphotase was used as a secondary antibody. The bound antibodies were quantitated by applying substrate disodium p-nitrophenyl phosphate (pNPP) and determining the light absorbance at 405 nm 15 minutes after the initiation of the chromagenic reaction. The background is defined by the binding of antiserum against the disintegrin to immobilized αvβ5. Specific binding is obtained by substrating the background from the total binding. Analyses of each concentration of ligand were performed in triplicate.

Sequence of purified αvβ5 (P06756 31-889 limits assumed): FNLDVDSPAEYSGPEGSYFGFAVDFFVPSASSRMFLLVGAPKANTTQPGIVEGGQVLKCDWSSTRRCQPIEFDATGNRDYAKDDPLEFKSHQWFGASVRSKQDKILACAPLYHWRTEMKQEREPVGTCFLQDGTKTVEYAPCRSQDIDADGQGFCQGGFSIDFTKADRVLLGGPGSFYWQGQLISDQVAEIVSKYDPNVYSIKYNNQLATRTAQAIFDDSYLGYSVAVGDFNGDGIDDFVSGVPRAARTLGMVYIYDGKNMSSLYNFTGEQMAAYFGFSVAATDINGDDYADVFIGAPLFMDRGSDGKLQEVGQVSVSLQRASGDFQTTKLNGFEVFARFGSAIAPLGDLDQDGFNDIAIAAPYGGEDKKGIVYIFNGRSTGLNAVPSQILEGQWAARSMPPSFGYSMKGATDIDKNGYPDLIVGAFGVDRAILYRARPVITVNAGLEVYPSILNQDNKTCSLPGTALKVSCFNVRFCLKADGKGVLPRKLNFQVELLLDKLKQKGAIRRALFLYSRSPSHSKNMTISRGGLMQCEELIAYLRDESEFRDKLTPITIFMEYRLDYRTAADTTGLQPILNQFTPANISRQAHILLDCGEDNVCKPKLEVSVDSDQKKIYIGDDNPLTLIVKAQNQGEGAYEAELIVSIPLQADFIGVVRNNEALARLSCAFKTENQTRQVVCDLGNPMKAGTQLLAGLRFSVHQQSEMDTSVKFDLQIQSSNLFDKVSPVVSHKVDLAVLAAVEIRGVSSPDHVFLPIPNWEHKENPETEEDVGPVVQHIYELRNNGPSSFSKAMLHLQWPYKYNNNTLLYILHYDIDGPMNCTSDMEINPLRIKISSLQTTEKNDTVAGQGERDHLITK
Sequence of purified αvβ5 (P18084 24-799): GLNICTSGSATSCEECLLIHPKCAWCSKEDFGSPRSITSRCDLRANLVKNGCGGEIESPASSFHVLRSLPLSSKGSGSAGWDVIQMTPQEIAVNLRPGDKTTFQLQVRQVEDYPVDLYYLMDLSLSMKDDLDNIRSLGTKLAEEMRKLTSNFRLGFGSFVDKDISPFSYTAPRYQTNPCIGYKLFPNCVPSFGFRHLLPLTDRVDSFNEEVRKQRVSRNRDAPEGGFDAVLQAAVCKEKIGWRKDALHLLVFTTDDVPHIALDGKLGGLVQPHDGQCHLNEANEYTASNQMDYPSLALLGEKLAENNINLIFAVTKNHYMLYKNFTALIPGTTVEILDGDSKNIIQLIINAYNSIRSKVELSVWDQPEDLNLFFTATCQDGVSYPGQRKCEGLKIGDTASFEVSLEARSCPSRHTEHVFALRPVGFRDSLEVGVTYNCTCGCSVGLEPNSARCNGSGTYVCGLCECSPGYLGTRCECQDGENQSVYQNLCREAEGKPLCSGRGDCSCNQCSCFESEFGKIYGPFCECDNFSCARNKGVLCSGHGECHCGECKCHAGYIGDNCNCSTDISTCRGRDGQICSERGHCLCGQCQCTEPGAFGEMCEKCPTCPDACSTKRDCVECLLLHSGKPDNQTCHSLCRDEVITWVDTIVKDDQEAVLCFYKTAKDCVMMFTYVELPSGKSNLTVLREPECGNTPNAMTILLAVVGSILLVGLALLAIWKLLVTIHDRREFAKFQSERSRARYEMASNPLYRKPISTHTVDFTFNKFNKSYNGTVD

B1: contortrostatin (protein)
chain: DAPANPCCDAATCKLTTGSQCADGLCCDQCKFMKEGTVCRRARGDDLDDYCNGISAGCPRNPFHA
OVCAR-5 cells
  tyrosine phosphorylation: do not show significant enhancement of tyrosine phosphorylation
T24 cells; FIG. 19 A, B
  adhesion of T24 cells to vitronectin, in words: inhibits adhesion of T24 completely
T24 cells; at a concentration less than 10 μg/ml
  inhibition of adhesion of T24 cells to vitronectin: 100%
Rabbit PRP
  IC50 of ADP-induced rabbit platelet aggregation: 17.3 µg/mL
Canine platelets
  50% inhibition (IC50) of platelet aggregation, canine platelets: 2.2 µg/mL
Purified (GP)IIb/IIIa
  (GP)IIb/IIIa binding to immobilized fibrinogen: effectively blocks (GP)IIb/IIIa binding
[1]
  M24 met cell adhesion to fibronectin and vitronectin: inhibit
[2]
  number of sites, high affinity site: 96,000 (±39,000) sites per cell
  number of sites, lower affinity site: 480,000 (±90,000) sites per cell
[2]; read-out: Kd, lower affinity site
  Kd: 41 nM
[2]; read-out: dissociation constant (Kd), high affinity site
  Kd: 1.1 nM
[3]
  tyrosine phosphorylation of 120-140 kDa proteins: also observed
T24-β3 neg. cells
  adhesion of T24-β3 neg. cells to vitronectin, in words: completely inhibited adhesion; also recorded: inhibits adhesion of T24-β3 neg. completely
Purified αvβ5
  binding to immobilized αvβ5: binds to αvβ5 in a dose-dependent and saturable manner
